The numbers were not newly measured in PMC3589724 (Scientific Reports, 2013), which cites them from elsewhere.

For data set [1], the system named is PC12B cells.
Data set [2] has as its system CaM. The following applies: in vitro, PC12B cells.
In data set [3] the test system is CaM. The note with it: position Phe42.

B1: S41A Nm mutant: Nm point mutant S41A (literature) (protein, UniProt P06837 1-227, looked up, variant S41A)
Neuromodulin: MLCCMRRTKQVEKNDEDQKIEQDGVKPEDKAHKAATKIQAAFRGHITRKKLKGEKKGDAPAAEAEAKEKDDAPVADGVEKKEGDGSATTDAAPATSPKAEEPSKAGDAPSEEKKGEGDAAPSEEKAGSAETESAAKATTDNSPSSKAEDGPAKEEPKQADVPAAVTDAAATTPAAEDAATKAAQPPTETAESSQAEEEKDAVDEAKPKESARQDEGKEDPEADQEHA
On to B1, for which, in data set [1], the “association of Nm with the membrane skeleton” value is reported as “inhibiting the association of Nm with the membrane skeleton of PC12B cells”. Further, the “Ca^2+ sensitivity of interaction with CaM” value in data set [2] was “insensitive to Ca^2+ concentrations in vitro”.

B2: Phe-to-Trp substitution: Nm with Phe-to-Trp substitution at Phe42 (literature) (protein, UniProt P06837 1-227, looked up, variant F42W)
Neuromodulin: MLCCMRRTKQVEKNDEDQKIEQDGVKPEDKAHKAATKIQASWRGHITRKKLKGEKKGDAPAAEAEAKEKDDAPVADGVEKKEGDGSATTDAAPATSPKAEEPSKAGDAPSEEKKGEGDAAPSEEKAGSAETESAAKATTDNSPSSKAEDGPAKEEPKQADVPAAVTDAAATTPAAEDAATKAAQPPTETAESSQAEEEKDAVDEAKPKESARQDEGKEDPEADQEHA
In the case of B2, the “increase in Nm-CaM affinity on Phe-to-Trp substitution” value in data set [3] is 10 fold.
